In patent US20240415884A1 one finds EC50 (read off the curve), percent lysis data, which are given here for 1 molecule.

The target of the experiment is T1, CD276 expressed on cells (Du145, PC3, CD276+ 293T, CHO-K1-CD276-Luci cells) (human) (UniProt Q5ZPR3).
T1 sequence (looked up): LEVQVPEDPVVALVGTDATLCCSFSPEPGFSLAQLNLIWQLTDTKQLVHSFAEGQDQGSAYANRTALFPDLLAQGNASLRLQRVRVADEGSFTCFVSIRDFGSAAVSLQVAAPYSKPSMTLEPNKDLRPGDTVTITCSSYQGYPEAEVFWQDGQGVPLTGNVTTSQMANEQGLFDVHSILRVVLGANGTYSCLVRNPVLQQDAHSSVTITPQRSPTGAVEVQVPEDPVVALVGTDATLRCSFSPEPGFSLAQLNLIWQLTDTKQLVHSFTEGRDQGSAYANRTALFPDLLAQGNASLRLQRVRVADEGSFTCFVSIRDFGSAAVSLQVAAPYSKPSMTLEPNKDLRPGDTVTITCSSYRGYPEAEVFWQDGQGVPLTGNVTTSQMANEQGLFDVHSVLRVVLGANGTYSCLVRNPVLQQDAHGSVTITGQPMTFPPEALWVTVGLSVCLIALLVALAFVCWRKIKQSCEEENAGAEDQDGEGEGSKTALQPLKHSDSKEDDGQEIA

B1: BiTE #5 (bispecific antibody, part only; not given: anti-CD3 scFv, part only)
chain, part: EVQLVESGGGLVQPGGSLRLSCAASPFPFTIYEMSWVRQASGKALEWIGYINHSGSTNYNPSLKSRVTISRDNSKNTLYLQMNSLRAEDTAMYYCAILAPDYWGQGTLVTVSSGGGGSGGGGSGGGGS
B1 returned an EC50 (read off the curve), percent lysis of 8 nM.
